{
  "source": "patent US6989260B2",
  "about": "“Human poly(ADP-ribose) polymerase 2 materials and methods” (ICOS Corporation, priority 1999, dated 2006)",
  "molecules": {"B1": {"name": "FB-hPARP2: full-length hPARP2 protein fused to a poly-His tag (SEQ ID NO:59) (protein)", "chain": "MRGSHHHHHHDYDIPTTENLYFQGAMDPEFKGLRRPMAARRRRSTGGGRARALNESKRVNNGNTAPEDSSPAKKTRRCQRQESKKMPVAGGKANKDRTEDKQDGMPGRSWASKRVSESVKALLLKGKAPVDPECTAKVGKAHVYCEGNDVYDVMLNQTNLQFNNNKYYLIQLLEDDAQRNFSVWMRWGRVGKMGQHSLVACSGNLNKAKEIFQKKFLDKTKNNWEDREKFEKVPGKYDMLQMDYATNTQDEEETKKEESLKSPLKPESQLDLRVQELIKLICNVQAMEEMMMEMKYNTKKAPLGKLTVAQIKAGYQSLKKIEDCIRAGQHGRALMEACNEFYTRIPHDFGLRTPPLIRTQKELSEKIQLLEALGDIEIAIKLVKTELQSPEHPLDQHYRNLHCALRPLDHESYEFKVISQYLQSTHAPTHSDYTMTLLDLFEVEKDGEKEAFREDLHNRMLLWHGSRMSNWVGILSHGLRIAPPEAPITGYMFGKGIYFADMSSKSANYCFASRLKNTGLLLLSEVALGQCNELLEANPKAEGLLQGKHSTKGLGKMAPSSAHFVTLNGSTVPLGPASDTGILNPDGYTLNYNEYIVYNPNQVRMRYLLKVQFNFLQLW", "modifications": "poly-His tag"}},
  "system": "hPARP2 poly(ADP-ribose) polymerase activity",
  "experiment": "Poly(ADP-ribose) polymerase activity assay (32P-NAD+ incorporation, SDS-PAGE, autoradiography)",
  "type": "biochemical, human",
  "conditions": "250 ng PARP1A/PARP2B or 25 ng FB-hPARP2, 10 min at room temperature, 2.5 μM unlabeled NAD+, E. coli Strain B DNA, gamma-[32P]-NAD+",
  "excerpt": "The PARP activity of hPARP2, or some substructure thereof, can be measured by the ability of that component to incorporate the ADP-ribose unit from NAD into polymers of ADP-ribose coupled to a protein substrate.\nA fusion protein, designated PARP1A/PARP2B, containing aa 1–662 of hPARP1 (SEQ ID NO:25) fused upstream of aa 230–583 of hPARP2 (SEQ ID NO:2) was used in the measurement of hPARP2 poly(ADP-ribose) polymerase activity. PARP1A/PARP2B contained the DNA binding domain (aa 1–373 of SEQ ID NO:25) and automodification domain (aa 373–525 of SEQ ID NO:25) of hPARP1 and the putative catalytic domain of hPARP2 (aa […] of SEQ ID NO:2).\nIn addition to PARP1A/PARP2B, a full-length hPARP2 protein fused to a poly-His tag (FB-hPARP2) was constructed for use in the measurement of hPARP2 poly(ADP-ribose) polymerase activity. The construction of FB-hPARP2 was carried out as follows.\nFor poly(ADP-ribose) polymerase activity assays, reagents were obtained from Sigma, unless otherwise indicated. PARP1A/PARP2B (250 ng) or FB-hPARP2 (25 ng) protein was incubated for 10 min at room temperature in assay buffer (total volume of 20 μL) containing 100 mM Tris, pH 8.0, 1 mM MgCl2, 10% glycerol, 1.5 mM dithiothreitol (Boehringer Mannheim/Roche Molecular Biochemicals, Indianapolis, Ind.), 2.5 μM unlabeled NAD^+, 16.7 μg/mL E. coli Strain B DNA, and 0.33 μCi gamma-[^32P]-NAD^+ (NEN, Boston, Mass.). […]",
  "data": [
    {"molecule": "PARP1A/PARP2B: fusion protein containing aa 1–662 of hPARP1 fused upstream of aa 230–583 of hPARP2; His tag leader, Strep-tag (SEQ ID NO:47)", "values": [
      {"measurement": "intrinsic poly(ADP-ribose) polymerase activity (ability to produce poly(ADP-ribose) polymers)", "result": "possessed intrinsic poly(ADP-ribose) polymerase activity"}
    ]},
    {"molecule": "B1", "values": [
      {"measurement": "intrinsic poly(ADP-ribose) polymerase activity (ability to produce poly(ADP-ribose) polymers)", "result": "possessed intrinsic poly(ADP-ribose) polymerase activity"}
    ]}
  ]
}
